Data taken from the supplement of paper PMC11246515.
± gives the standard deviation of the averaged measurements.

Experiment: total protein half-life in vivo (active degradation + dilution); higher = more stable protein
[1] = E. coli NCM3722 delta-clpP delta-lon delta-hslV, growth: N-lim chemostat, doubling time 6 h
[2] = E. coli NCM3722 delta-clpP, growth: N-lim chemostat, doubling time 6 h
[3] = E. coli NCM3722 delta-hslV, growth: N-lim chemostat, doubling time 6 h
[4] = E. coli NCM3722 delta-lon, growth: N-lim chemostat, doubling time 6 h
[5] = E. coli NCM3722 delta-smpB, growth: N-lim chemostat, doubling time 6 h
[6] = wild type E. coli NCM3722, growth: C-lim chemostat, doubling time 3 h
[7] = wild type E. coli NCM3722, growth: C-lim chemostat, doubling time 6 h
[8] = wild type E. coli NCM3722, growth: C-lim chemostat, doubling time 12 h
[9] = wild type E. coli NCM3722, growth: N-lim chemostat, doubling time 6 h
[10] = wild type E. coli NCM3722, growth: N-lim chemostat, doubling time 12 h
[11] = wild type E. coli NCM3722, growth: P-lim chemostat, doubling time 6 h
[12] = wild type E. coli NCM3722, growth: P-lim chemostat, doubling time 12 h

Row | Sequence | total protein half-life in vivo [1] [h] | total protein half-life in vivo [2] [h] | total protein half-life in vivo [3] [h] | total protein half-life in vivo [4] [h] | total protein half-life in vivo [5] [h] | total protein half-life in vivo [6] [h] | total protein half-life in vivo [7] [h] | total protein half-life in vivo [8] [h] | total protein half-life in vivo [9] [h] | total protein half-life in vivo [10] [h] | total protein half-life in vivo [11] [h] | total protein half-life in vivo [12] [h]
1 | MEQRHITGKSHWYHETQSSTTEYDVLPLVPEAAKVSDPFLLDVILEKETLAPFLSWLDPARVLAVDLFPDQLTVTRSQTFTAYERLSTALTVAQVCGVQRLCNYYSARLTPLPGPDSTRESNHRLAQITQYARQLASSPSIIDNRSRQHLNDVGLTAWDCVIISQIIGFIGFQARTIATFQAYLGHPVRWLPGLEIQNYADASLFADESLRWRSSYEVEKLPEEHTKSSTAELCQLAEILSLHPISLSLLEKLLNSTRGNTQPDNQLAALLCARINGSPACFATCMDSSNEYKKISTLMRKGENEINQWADRHSVERATVQAIQWLTRAPDRFSAAQFSPLLEHEKSSTQIINLLVWSGLCGWINRLKIALGETY | 6.43 ± 1.4 | 1.97 ± 0.21 | 1.97 ± 0.55 | 1.26 | 1.07 ± 0.024 | 1.25 ± 0.085 | 1.21 ± 0.12 | 1.93 ± 0.13 | 1.31 ± 0.044 | 6.39 ± 6 | 1.32 ± 0.4 | 2.65 ± 0.49
2 | MEQSVANLVDMRDVSFTRGNRCIFDNISLTVPRGKITAIMGPSGIGKTTLLRLIGGQIAPDHGEILFDGENIPAMSRSRLYTVRKRMSMLFQSGALFTDMNVFDNVAYPLREHTQLPAPLLHSTVMMKLEAVGLRGAAKLMPSELSGGMARRAALARAIALEPDLIMFDEPFVGQDPITMGVLVKLISELNSALGVTCVVVSHDVPEVLSIADHAWILADKKIVAHGSAQALQANPDPRVRQFLDGIADGPVPFRYPAGDYHADLLPGS | 6.3 ± 0.54 | 6.19 ± 0.062 | – | – | 5.79 ± 0.68 | 3.08 ± 0.07 | 7.05 ± 1.1 | 12.3 ± 2 | 6.18 ± 0.23 | > 16 | 7.04 ± 0.68 | 14.1 ± 0.78
3 | MERFDAIIIGAGAAGMFCSALAGQAGRRVLLIDNGKKPGRKILMSGGGRCNFTNLYVEPGAYLSQNPHFCKSALARFTQWDFIDLVNKHGIAWHEKTLGQLFCDDSAQQIVDMLVDECEKGNVTFRLRSEVLSVAKDETGFTLDLNGMTVGCEKLVIATGGLSMPGLGASPFGYKIAEQFGLNVLPTRAGLVPFTLHKPLLEELQVLAGVAVPSVITAENGTVFRENLLFTHRGLSGPAVLQISSYWQPGEFVSINLLPDVDLETFLNEQRNAHPNQSLKNTLAVHLPKRLVERLQQLGQIPDVSLKQLNVRDQQALISTLTDWRVQPNGTEGYRTAEVTLGGVDTNELSSRTMEARKVPGLYFIGEVMDVTGWLGGYNFQWAWSSAWACAQDLIAAKSS | 5.02 ± 0.28 | 5.67 ± 1.1 | – | 5.81 ± 0.69 | 4.72 ± 0.1 | 3.282 ± 0.019 | 6.42 ± 0.6 | 12.3 ± 1.9 | 5.15 ± 0.21 | 9.59 ± 0.85 | 5.88 ± 0.17 | 10.8 ± 1.7
4 | MERIVVTLGERSYPITIASGLFNEPASFLPLKSGEQVMLVTNETLAPLYLDKVRGVLEQAGVNVDSVILPDGEQYKSLAVLDTVFTALLQKPHGRDTTLVALGGGVVGDLTGFAAASYQRGVRFIQVPTTLLSQVDSSVGGKTAVNHPLGKNMIGAFYQPASVVVDLDCLKTLPPRELASGLAEVIKYGIILDGAFFNWLEENLDALLRLDGPAMAYCIRRCCELKAEVVAADERETGLRALLNLGHTFGHAIEAEMGYGNWLHGEAVAAGMVMAARTSERLGQFSSAETQRIITLLKRAGLPVNGPREMSAQAYLPHMLRDKKVLAGEMRLILPLAIGKSEVRSGVSHELVLNAIADCQSA | 4.67 ± 1.3 | 3.73 ± 0.43 | 3.46 ± 0.2 | 3.72 ± 0.1 | 3.57 ± 0.046 | 2.77 ± 0.15 | 5.16 ± 0.2 | 8.87 ± 0.33 | 3.49 ± 0.091 | 5.447 ± 0.037 | 5.77 ± 0.57 | 10.6 ± 0.48
5 | MERNVTLDFVRGVAILGILLLNISAFGLPKAAYLNPAWYGAITPRDAWTWAFLDLIGQVKFLTLFALLFGAGLQMLLPRGRRWIQSRLTLLVLLGFIHGLLFWDGDILLAYGLVGLICWRLVRDAPSVKSLFNTGVMLYLVGLGVLLLLGLISDSQTSRAWTPDASAILYEKYWKLHGGVEAISNRADGVGNSLLALGAQYGWQLAGMMLIGAALMRSGWLKGQFSLRHYRRTGFVLVAIGVTINLPAIALQWQLDWAYRWCAFLLQMPRELSAPFQAIGYASLFYGFWPQLSRFKLVLAIACVGRMALTNYLLQTLICTTLFYHLGLFMHFDRLELLAFVIPVWLANILFSVIWLRYFRQGPVEWLWRQLTLRAAGPAISKTSR | – | 5.73 ± 0.069 | 5.75 ± 1.1 | 6.13 ± 0.32 | 5.67 ± 0.66 | – | 6.471 ± 0.017 | 10.3 ± 1.2 | 6.72 ± 0.74 | 7.45 ± 4 | 5.19 ± 0.44 | 11.6 ± 0.22
6 | MESIEQQLTELRTTLRHHEYLYHVMDAPEIPDAEYDRLMRELRELETKHPELITPDSPTQRVGAAPLAAFSQIRHEVPMLSLDNVFDEESFLAFNKRVQDRLKNNEKVTWCCELKLDGLAVSILYENGVLVSAATRGDGTTGEDITSNVRTIRAIPLKLHGENIPARLEVRGEVFLPQAGFEKINEDARRTGGKVFANPRNAAAGSLRQLDPRITAKRPLTFFCYGVGVLEGGELPDTHLGRLLQFKKWGLPVSDRVTLCESAEEVLAFYHKVEEDRPTLGFDIDGVVIKVNSLAQQEQLGFVARAPRWAVAFKFPAQEQMTFVRDVEFQVGRTGAITPVARLEPVHVAGVLVSNATLHNADEIERLGLRIGDKVVIRRAGDVIPQVVNVVLSERPEDTREVVFPTHCPVCGSDVERVEGEAVARCTGGLICGAQRKESLKHFVSRRAMDVDGMGDKIIDQLVEKEYVHTPADLFKLTAGKLTGLERMGPKSAQNVVNALEKAKETTFARFLYALGIREVGEATAAGLAAYFGTLEALEAASIEELQKVPDVGIVVASHVHNFFAEESNRNVISELLAEGVHWPAPIVINAEEIDSPFAGKTVVLTGSLSQMSRDDAKARLVELGAKVAGSVSKKTDLVIAGEAAGSKLAKAQELGIEVIDEAEMLRLLGS | 6.33 ± 0.46 | 5.67 ± 0.88 | 5 ± 0.61 | 5.11 ± 0.22 | 4.28 ± 0.047 | 2.8 ± 0.23 | 5.68 ± 1.1 | 9.65 ± 0.5 | 4.64 ± 0.15 | 8.04 ± 0.3 | 4.92 ± 0.57 | 8.66 ± 0.66
